The values below come from publication doi:10.1101/2022.11.07.515376 (bioRxiv, 2022).

The data set “SEC” deals with the molecule itself. Put plainly: SEC. On the technique in general: SEC sorts molecules by how far they enter the pores of the column.
The data set “ITC” concerns the molecule itself. Put plainly: ITC. A general note: Isothermal titration calorimetry measures the heat released or taken up as one component is titrated into another.
The data set “AUC” deals with the molecule itself. Description: AUC.

B1: MSMEG_2027, full-length (as used in the solution studies) (enzyme)
chain: MTDAELSPTDWVREQTERILEQGTTDGVHVLDRPIVLFTTTGAKSGKKRYVPLMRVEENGKYAMVASKGGDPKHPSWYFNVKANPTVSVQDGDKVLPDRTARELEGEEREHWWKLAVEAYPPYAEYQTKTDRLIPVFIVE
The term stoichiometry N denotes the number of molecules, sites or subunits per partner or assembly. Broadly, the Kd is the concentration at which binding is half-saturated. In the case of B1, the “stoichiometry N” value in the data set “SEC” turned out to be 2. Besides, the Kd is around 1.2 µM in “ITC” and around 8 µM in “AUC”.
